The values that follow are results of earlier work, collected in paper PMC3686494.

For orientation: pKd means the Kd on a negative log10 scale, so that one unit is a factor of ten.

pKd: −log10 of the molar value.

This series concerns the target AgCad1 (cadherin) CR9-11 (Anopheles gambiae). As to the kind of experiment: one-site saturation binding.

Take Cry4Ba (from UniProt P05519): the negative logarithm of the Kd (pKd) was 7.89.
